Source: the DeepSol protein solubility set

Test: soluble on expression in E. coli; label from the status in PepcDB or PDB records

Sequence | soluble on expression in E. coli
MSFDIAKYPTLALVDSTQELRLLPKESLPKLCDELRRYLLDSVSRSSGHFASGLGTVELTVALHYVYNTPFDQLIWDVGHQAYPHKILTGRRDKIGTIRQKGGLHPFPWRGESEYDVLSVGHSSTSISAGIGIAVAAEKEGKNRRTVCVIGDGAITAGMAFEAMNHAGDIRPDMLVVLNDNEMSISENVGALNNHLAQLLSGKLYSSLREGGKKVFSGVPPIKELLKRTEEHIKGMVVPGTLFEELGFNYIGPVDGHDVLGLITTLKNMRDLKGPQFLHIMTKKGRGYEPAEKDPITFHAVPKFDPSSGCLPKSSGGLPSYSKIFGDWLCETAAKDNKLMAITPAMREGSGMVEFSRKFPDRYFDVAIAEQHAVTFAAGLAIGGYKPIVAIYSTFLQRAYDQVLHDVAIQKLPVLFAIDRAGIVGADGQTHQGAFDLSYLRCIPEMVIMTPSDENECRQMLYTGYHYNDGPSAVRYPRGNAVGVELTPLEKLPIGKGIVKRRGEKLAILNFGTLMPEAAKVAESLNATLVDMRFVKPLDETLILEMAASHEALVTVEENAIMGGAGSGVNEVLMAHRKPVPVLNIGLPDFFIPQGTQEEMRAELGLDAAGMEAKIKAWLA | not soluble
SVPQISQPHFLLDGLSSQPLFNDIAAGIPSITAYSKNGLKIEFTFERSNTNPSVTVITIQASNSTELDMTDFVFQAAVPKTFQLQLLSPSSSIVPAFNTGTITQVIKVLNPQKQQLRMRIKLTYNHKGSAMQDLAEVNNFPPQSWQ | soluble
MVDLEQEFALGGRCLAFHGPLMYEAKILKIWDPSSKMYTSIPNDKPGGSSQATKEIKPQKLGEDESIPEEIINGKCFFIHYQGWKSSWDEWVGYDRIRAYNEENIAMKKRLANEAKEAKKSLLEHHHHHH | soluble
NKSYRSTEQITNFAKALLPDGDQIQAFTRKGDLPKVMIRYGEDAALSSLRSEVEHQLKATNTVAVLTKDLAESKQVYQYLKRYTVTTLMADSDRTMPQGVIVMPIYLAKGLEFDAVVAYDVSATNYPDADSVGILYTIASRAMHHLTLLSIGDVSPLIAQLDPTLFTIEHQVRV | not soluble
MPQALSTDILIVGGGIAGLWLNARLRRAGYATVLVESASLGGGQSVKSQGIIHGGAKYALHGALTGASEAIADMPRRWRACLGSDGELDLRGVRLLSEAHYLWSPGGLAGSLTSFFASKAVRSRVEQAKGEDLPPALRDKGFKGKAYRLTEIVFDVPDLIRRLAELAGDSLLAGERIEPLREGRELAGLCVDGREIRAQRVVLSAGAGNEALLRELGLEQPAMQRRPLHMVMVKAATLKPLYAHCLGAGPKPRITVTTHPTRDGQSVWYLGGDIAETDGVARDEAAQIAEARRELAKLLPWIDLGQAQWATLRVDRAEPAQSNLLRPDNAFLAEQGRLLVGWPTKLALAPDFADRVCARLEEDGIRPSEHAALPQLPRPPLAEPAWEVAFALEHHHHHH | not soluble
MMFLNKVDKRKIALFQLLENAPMLTESKETVMQELELSEFIVNKTVAELNADFIEFGLSEDFQIVSDGIFLTLNESGTETSATLIDCYIKESLRFAMFQDFFFQRFDSVNEFALEHFVSHTLAYKEFKELKKMLENYQITINKEFHLVGNETNLREVTTLVFLQLYQRDFSLYGKKVLEQIRNFELFFSEKVHLNQRAGYAQAKCFHFLAVSLVRTQQQFYVEKKVDSQVLKQLAGDNQQNVFNWLESLQIPEPQRTNEGNYLLLFLIAEEWLQVASAALCQRFAEIQQLNRDLLSYLKIQFQLSEEVLQGFEQKVTIVHFKLFHFPIEANYSYLKMDITYFAETYTEYFSASRQFIQEQKTNPAVWDARRFLFYRYLLLMVDALPLKKVLAPITLCVDFSFGEAYNRMIQKNIEKITEWNIIFKAHVDESVQLILSDIHFVDWPEITQIIWLAPPRPVDWSHFIKTLSALRPHSGEEKKKSS | not soluble
MMAVENAVDYPISVRLPSYVVEKIDELVKKRKFRSRSDFIKFAVTFALGQIMMEEARERAKNEPEELEKERKEAWMRLRAGDFSKEDEETLELLKKVDARYKRLGGRS | soluble
MSLKPRVAVIGSGSIGLLLYAYLKLANWPALLVTNRPEQADHLNKEGLTFVAKSGEHQPISVTATPLSSFSAEEAEVGFITVKSFAVKALLPQLQRKKWDGLVFFQNGMTHLEILRQIPARAICCGIVEIGAKRESDVRVQHTGDGAIWIGDMVGDSKNFDPMWACLHNAGLKAQKVTNWQDKMERKLIANAAINPLTGLFRVKNGALIENQLFSLLLKELVKEACVTLGREREVDEHLAYTRAICDKTANNLSSMYMDLTHHRRTEIESITGYLIKEAAKKGIEIPNTSFVYHAVMGMDEEGRKVREGHHHHHH | soluble
MAHHHHHHMNPSLSDSKFEKAMSKLQLLEDSRTILHRMLQHAHFSFSNAQRQMDRTGLLLAWEAVPTAAGAVKPQYCIVREMKDGGNGGDAGVGAAAISDDNVDCAVWKLVNCGDSAGEDPAKWFAVAPSEALRECQQHFRGVVNACVKVIQAQEEAITAAATVPVT | not soluble
MAGDPMNSRMKIKKAYEYMKSFHQHDTTGHDIAHVERVYNNACYIAKRENITDTLVIELSSLLHDTVDSKLTDEILAYDQLKQFLSTLDLSSEISQQVLYIIKHMSYRAGKNNHVKLSIDGEIVRDADRLDAIGAIGIARTFQFSGHFGEPMWTETKLSNEELHTSLVEELDNSAIKHFYEKLFKLKDLMHTPTAKKLAEERHQFMIQYLKQFMSEWNFNKELEHHHHHH | soluble
MGSDKIHHHHHHMATIKDIAARLGVSISTVSKGLNGASDISEELRQTVLDTAVEMGYSTKRSRKVENRKLALFIENMNYESIDEFGYDVVLGFKQNAFKHKWDVDIIPVTPQLQAEEKYDTYILKNGYCGAFLVGFALHDEWMQQLKNTTMPTVLFDNYIENNPNVAYVGTDSYEGIDMAVKHLHNLGHKKIAFINGSLFSLVSDQRQEAFENSMRDAGLEIYPELMGHGYYIPETAQYYVSNFIAAGATAILCGSDTIAKGVISECQLHGFNVPNDISVVGFDDVKFAAALTPPLTTIRQERNDLGRCAYIILNSLIHHIPISRTQLRPMLIERESTARVSTAHAAEE | not soluble
MSLPDTSPDLPAMSPLAVYRQAVEQRGFAPDEAQRRAAEALERCFQALHEAHRHGAIQGVYLWGPVGRGKTWLMDHFYQCLRVPARRQHFHHFMQWVHQRQFELTGTADPLRALARELARDVRVLCFDELFVSDIGDAILLGSLLRIMFEEGVVLVATSNQPPEQLYADGFNRERFLPAIEAIQRHMAVVAVDGGQDHRLHPGRAEQRYWVVEAGQASGFAELFARLSAGEAASTQPIELGHRPLAVHRHSESVLWCSYAQLCEAPLSALDFIGLCDRYRAILMDDLPCLSASQREGRIARGTEDGAQLVEAGDRELPQLSVHDDGVRRFIALVDECYDRKVPLYLEARVPLEALYTEGYLAFAFRRTLSRLREMQLARFGSDSEGGSHHHHHH | soluble
MGSDKIHHHHHHMRILLVGHYPPHKGGVARHVKQLKECLEKRHEVYVLTYGTVAVEEENVYSVKVPNIFGIRGTSFALLASKKIVKLHEKYNFDLVHAHYVGTTSFAGVLAKRKTGVPLVITAHGSDLEFMSRLPLGGYFVKTSIMEADYVIAVSHYLAKKALELGASRISVIPNWTELSGESERKYILFLGRVASYKGIEDFIELAKRFPGEEFVVAGEGPLLKKLRAKSPPNVKFLGYVPAEDVLKKAKVLVLPSKREGFGLVVIEANSFKVPVLGRNVGGIRELIRFSKNGYLFEDIEDAITYLKTLLVPKTNVKLGSIGKRISKGHSQEKMCERVEEIYREVIS | not soluble
MATVGGAFKDSLTQAQKDELHQIALKIVQDGKGILAADESTGTIGKRLDAINLENNETNRQKYRQLLFTTPNLNQHISGVILYEETFHQSTDKGEKFTDLLIKQGIVPGIKLDLGVVPLAGTIGEGTTQGLDKLAERAAAFKKGGCGFAKWRCVLNIGTHTPSHLGMLENANVLARYASICQANGLVPIVEPEVLCDGEHDLARAQKVTEQVLAFVYKALADHHVYLEGTLLKPNMVTPGQSSASKASHEAIGLATVTALRRGVPAAVPGITFLSGGQSELDATANLNAINSVQLGKPWKLTFSYGRALQASVLKAWGGKDENIAAAQKTLLHRSKANGDASLGKYAGEDAAGAAAESLFVAKHSY | not soluble
MAHHHHHHMNLSDSNKDLNDSKSDKSTSWVKWFNSRAFSNFLVEVDNEYITDSFNLYGLKSEMPNFNHLLSIVAGDAPEEDDAKNAFGKDAVSLYSLIHARFITTPKGLSLMKDKYIKGDFGSCPRVSCSQHNVLPIGLFDQIKIAKVHVYCPLCQEIYKIHEEDKVYLDGSFFGTSFPHILLQTYPYYATLKTPSYCTSKIFGFSVYHNFTRTEYKIAKGEFGKLSRENFLKKNPKYLKKLKKEELQIKDT | not soluble
